# From patent publication US20230265151A1, “GIP/GLP1 CO-AGONIST COMPOUNDS” (priority 2020, published 2023)
# Positions count from the first letter of the chain named. *1 amine or outer side, *2 acyl side, *3 side chain or, on linkers, in order; H or OH if unused. Where no end group is shown, it is not given here. Side-chain parts run from the residue outwards. [ ]: non-standard residue; d: D form. The star is where a group is joined. αMePhe(2-F) = C[C@](N)(Cc1ccccc1F)C(=O)O; γGlu = O=C(O)[C@H](CCC(=O)[*:2])N[*:1]; C14 diacid = O=C(O)CCCCCCCCCCCCC(=O)*; αMeF = C[C@](N)(Cc1ccccc1)C(=O)O; αMeL = CC(C)C[C@](C)(N)C(=O)O; Orn = NCCC[C@H](N)C(=O)O; AEEA = NCCOCCOCC(=O)O; Aib = CC(C)(N)C(=O)O
# B1: Example 124 (peptide)
# peptide: YXEGTXTSDXSIXLDXKAQXEXIKXLIEGGPSSGAPPPS
# modifications: Aib2, αMeF(2F)6, Ac5c10, αMeL13, Orn16, Aib20, αMeF22, αMeF25, K17 and K24: K(AEEA2-(γ-Glu)-CO-(CH2)12-CO2H), C-terminal NH2
# B2: Example 12 (peptide)
# peptide: B1 peptide with X22F, K24X, P31K
# modifications: Aib2, αMeF(2F)6, 4Pal10, αMeL13, Orn16, Aib20, D-Glu24, αMeY25, K17 and K31: K(AEEA-(γ-Glu)-(10-(4-carboxyphenoxy)decanoyl)), C-terminal NH2
# B3: Example 125 (peptide)
# peptide: B1 peptide with X22F, K24X, P31K
# modifications: Aib2, αMeF(2F)6, 4Pal10, αMeL13, Orn16, Aib20, D-Glu24, αMeY25, K17 and K31: K(AEEA2-(γ-Glu)-(7-(4-carboxyphenoxy)heptanoyl)), C-terminal NH2
# B4: Example 126 (peptide)
# peptide: B1 peptide with X22F, K24X, P31K
# modifications: Aib2, αMeF(2F)6, 4Pal10, αMeL13, Orn16, Aib20, D-Glu24, αMeY25, K17 and K31: K(AEEA2-(γ-Glu)-(8-(4-carboxyphenoxy)octanoyl)), C-terminal NH2
# B5: Example 127 (peptide)
# peptide: B1 peptide with E21K, X22F, K24X
# modifications: Aib2, αMeF(2F)6, 4Pal10, αMeL13, Orn16, Aib20, D-Glu24, αMeY25, K17 and K21: K(AEEA2-(γ-Glu)-(10-(4-carboxyphenoxy)decanoyl)), C-terminal NH2
# B6: Example 128 (peptide)
# peptide: B1 peptide with X22F
# modifications: Aib2, αMeF(2F)6, 4Pal10, αMeL13, Orn16, Aib20, αMeY25, K17 and K24: K(AEEA2-(γ-Glu)-(10-(4-carboxyphenoxy)decanoyl)), C-terminal NH2
# B7: Example 129 (peptide)
# peptide: B1 peptide with X22F, K24X, E28K
# modifications: Aib2, αMeF(2F)6, 4Pal10, αMeL13, Orn16, Aib20, D-Glu24, αMeY25, K17 and K28: K(AEEA2-(γ-Glu)-(10-(4-carboxyphenoxy)decanoyl)), C-terminal NH2
# B8: Example 130 (peptide)
# peptide: B1 peptide with X10K, X22F, K24X
# modifications: Aib2, αMeF(2F)6, αMeL13, Orn16, Aib20, D-Glu24, αMeY25, K10 and K17: K(AEEA2-(γ-Glu)-(4-(4-tert-butylphenyl)butanoyl)), C-terminal NH2
# B9: Example 131 (peptide)
# peptide: B1 peptide with E21K, X22F, K24X
# modifications: Aib2, αMeF(2F)6, 4Pal10, αMeL13, Orn16, Aib20, D-Glu24, αMeY25, K17 and K21: K(AEEA2-(γ-Glu)-(4-(4-tert-butylphenyl)butanoyl)), C-terminal NH2
# B10: Example 132 (peptide)
# peptide: B1 peptide with X22F
# modifications: Aib2, αMeF(2F)6, 4Pal10, αMeL13, Orn16, Aib20, αMeY25, K17 and K24: K(AEEA2-(γ-Glu)-(4-(4-tert-butylphenyl)butanoyl)), C-terminal NH2
# B11: Example 133 (peptide)
# peptide: B1 peptide with X22F, K24X, E28K
# modifications: Aib2, αMeF(2F)6, 4Pal10, αMeL13, Orn16, Aib20, D-Glu24, αMeY25, K17 and K28: K(AEEA2-(γ-Glu)-(4-(4-tert-butylphenyl)butanoyl)), C-terminal NH2
# B12: Example 134 (peptide)
# peptide: B1 peptide with X22F, K24X, G30K
# modifications: Aib2, αMeF(2F)6, 4Pal10, αMeL13, Orn16, Aib20, D-Glu24, αMeY25, K17 and K30: K(AEEA2-(γ-Glu)-(4-(4-tert-butylphenyl)butanoyl)), C-terminal NH2
# B13: Example 13 (peptide)
# peptide: B1 peptide with X22F, K24X, P31K
# modifications: Aib2, αMeF(2F)6, 4Pal10, αMeL13, Orn16, Aib20, D-Glu24, αMeY25, K17 and K31: K(AEEA-(γ-Glu)-CO-(CH2)14-CH3), C-terminal NH2
# B14: Example 135 (peptide)
# peptide: YXEGTXTSDXSIXLDXKAQXEFIXXLIEGGPSSGAPPPSK
# modifications: Aib2, αMeF(2F)6, 4Pal10, αMeL13, Orn16, Aib20, D-Glu24, αMeY25, K17 and K40: K(AEEA2-(γ-Glu)-(4-(4-tert-butylphenyl)butanoyl)), C-terminal NH2
# Tests used:
# Assay in all cases: cell-based or functional assay
# [1] = biological target: T1, human GIP receptor (human, UniProt P48546 22-466)
# T1 sequence (looked up): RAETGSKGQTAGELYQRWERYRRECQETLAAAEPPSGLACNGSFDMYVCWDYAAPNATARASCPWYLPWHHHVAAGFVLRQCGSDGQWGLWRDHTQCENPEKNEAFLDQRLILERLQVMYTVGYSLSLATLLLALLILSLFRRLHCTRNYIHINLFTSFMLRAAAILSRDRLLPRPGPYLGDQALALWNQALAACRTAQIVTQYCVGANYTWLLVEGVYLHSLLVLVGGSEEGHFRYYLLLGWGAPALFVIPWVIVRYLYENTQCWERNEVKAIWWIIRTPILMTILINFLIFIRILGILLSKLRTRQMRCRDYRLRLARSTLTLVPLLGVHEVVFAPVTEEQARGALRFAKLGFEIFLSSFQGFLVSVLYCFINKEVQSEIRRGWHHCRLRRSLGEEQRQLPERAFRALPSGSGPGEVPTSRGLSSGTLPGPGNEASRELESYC
# [2] = biological target: human GLP-1 receptor (human, UniProt P43220 24-463)
# [3] = biological target: human glucagon receptor (human, UniProt P47871 26-477)
Binder,"EC50, cAMP [1]","Emax, cAMP [1]","EC50, cAMP [2]","Emax, cAMP [2]","EC50, cAMP [3]"
Y[Aib]EGT[αMePhe(2-F)]TSDV[Aib]I[αMeL]LD[Orn]K([AEEA-AEEA-γGlu-C14 diacid])AQ[Aib]E[αMeF]IK([AEEA-AEEA-γGlu-C14 diacid])[αMeF]LIEGGPSSGAPPPS-NH2 [Example 123],0.101 nM,94.9%,0.508 nM,96.3%,> 9950 nM
B1,0.1 nM,,1.24 nM,93.3%,> 9950 nM
B2,0.0127 nM,,0.423 nM,,> 9950 nM
B3,0.0547 nM,,2.78 nM,,> 9950 nM
B4,0.0472 nM,,1.69 nM,,> 9950 nM
B5,0.027 nM,,0.762 nM,,> 9950 nM
B6,0.0232 nM,,0.293 nM,,> 9950 nM
B7,0.0248 nM,,1.28 nM,,> 9950 nM
B8,0.0266 nM,94.7%,0.204 nM,100%,> 9950 nM
B9,0.0156 nM,,0.19 nM,,> 9950 nM
B10,0.0208 nM,,0.182 nM,,> 9950 nM
B11,0.018 nM,,0.258 nM,,> 9950 nM
B12,0.0238 nM,,0.577 nM,,> 9950 nM
B13,0.00597 nM,,0.0214 nM,,> 9950 nM
B14,0.0184 nM,92.3%,0.271 nM,,> 9950 nM
